Measurements: patent publication US20170119913A1 (3B PHARMACEUTICALS, published 2017)

Molecular target: T1, CCR1 (h), C-C chemokine receptor type 1 (human (printed as (h)), UniProt P32246 1-355)
T1 sequence (looked up): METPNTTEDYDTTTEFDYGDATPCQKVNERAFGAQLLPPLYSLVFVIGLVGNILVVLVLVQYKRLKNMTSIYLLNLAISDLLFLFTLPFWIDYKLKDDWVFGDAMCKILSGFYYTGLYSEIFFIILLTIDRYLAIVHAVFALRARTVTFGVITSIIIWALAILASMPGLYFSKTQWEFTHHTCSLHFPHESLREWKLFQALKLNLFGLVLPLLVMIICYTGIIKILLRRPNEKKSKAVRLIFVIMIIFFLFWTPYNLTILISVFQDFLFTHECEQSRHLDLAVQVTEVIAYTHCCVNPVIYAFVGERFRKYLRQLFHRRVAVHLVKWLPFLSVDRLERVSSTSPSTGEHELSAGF
Assay: Cerep ExpresSProfile radioligand competition binding, reference compound (agonist radioligand)

Ki: 0.041 nM
B1: MIP-1alpha (ligand, UniProt P10147 24-92, looked up)
chain: SLAADTPTACCFSYTSRQIPQNFIADYFETSSQCSKPGVIFLTKRSRQVCADPSEEWVQKYVSDLELSA
